Article PMC8288147

Molecular target: Hepatitis B Surface Antigen (HBsAg) SpyCatcher nanoparticles (Hepatitis B virus)
Test: covalent SpyTag/SpyCatcher conjugation shown by reduced SDS-PAGE

Substance: RBD-SpyTag (SARS-CoV-2 receptor binding domain fused to the SpyTag peptide) (from UniProt P0DTC2) (domain or fragment)
- fraction unconjugated: < 20%
